Test results: the supplement of paper PMC12783771
± gives the standard deviation of the averaged measurements.

B1: library; numbered along this chain (parent)
chain: MNIQIGELAKRTACPVVTIRFYEQEGLLPPPGRSRGNFRLYGEEHVERLQFIRHCRSLDMPLSDVRTLLSYRKRPDQDCGEVNMLLDEHIRQVESRIGALLELKHHLVELREACSGARPAQSCGILQGLSDCVCDTRGTTAHPSD

Legend:
[1] = variants of: B1; assay: sfGFP reporter fluorescence (15 h) (µM FITC); higher = higher leak; conditions: library round: Round 0; ligand: none
Method in brief: (§1)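 An Echo normalized PCR-made linear PbrR templates to 5 nM and assembled 1 μL reactions in BL21 Star (DE3) PANOx-SP extract carrying the pPbrR-sfGFP reporter plasmid and 30 μg/mL GamS. Reactions received 1 µM lead chloride, 30 µM zinc acetate or no metal and stood 15 hr at 30 °C. Fluorescence at 485/528 nm (Synergy Neo2) was converted with FITC standard curves made in 50 mM sodium borate pH 8.5. Endpoint sfGFP signal is given in µM FITC, from up to three biological replicates.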

[2] = variants of: B1; assay: sfGFP reporter fluorescence (15 h) (µM FITC); higher = stronger transcriptional activation; conditions: library round: Round 0
Method in brief: as §1

Variant | sfGFP reporter fluorescence [1] | sfGFP reporter fluorescence ([2]; ligand: 1 µM Pb) | sfGFP reporter fluorescence ([2]; ligand: 30 µM Zn)
S115A | 0.0599 ± 0.00078 | 0.0663 ± 0.0047 | 0.478 ± 0.14
G124A | 0.05919 ± 0.00026 | 0.064 ± 0.0013 | 0.222 ± 0.015
Q121A | 0.0645 ± 0.001 | 0.0944 ± 0.0023 | 1.16 ± 0.19
I125P | 0.0559 ± 0.00078 | 0.05791 ± 0.00052 | 0.05351 ± 0.00052
I125R | 0.0608 ± 0.0026 | 0.0603 ± 0.0013 | 0.0575 ± 0.0021
I125A | 0.0572 ± 0.0042 | 0.0553 ± 0.0021 | 0.0585 ± 0.0023
I125F | 0.0553 ± 0.001 | 0.0579 ± 0.0021 | 0.05259 ± 0.00026
I125D | 0.0585 ± 0.0013 | 0.0583 ± 0.0031 | 0.0559 ± 0.0039
I125Q | 0.0588 ± 0.00078 | 0.0597 ± 0.0015 | 0.055 ± 0.0021
I125S | 0.0597 ± 0.0021 | 0.0574 ± 0.0013 | 0.0568 ± 0.0021
I125M | 0.05992 ± 0.00026 | 0.0579 ± 0.001 | 0.05571 ± 0.00052
I125N | 0.0581 ± 0.00078 | 0.0581 ± 0.00078 | 0.055 ± 0.0015
I125C | 0.0596 ± 0.00078 | 0.05901 ± 0.00052 | 0.0568 ± 0.0047
I125H | 0.0601 ± 0.0031 | 0.06011 ± 0.00052 | 0.057 ± 0.0023
I125T | 0.0585 ± 0.0023 | 0.0566 ± 0.0013 | 0.06414 ± 0.00052
I125Y | 0.059 ± 0.0021 | 0.0588 ± 0.0023 | 0.0552 ± 0.0029
I125G | 0.0546 | 0.0559 ± 0.00078 | 0.0504 ± 0.0029
I125V | 0.0583 | 0.0627 | 0.183 ± 0.0036
I125W | 0.0588 ± 0.0018 | 0.0596 ± 0.0013 | 0.0564 ± 0.0026
I125E | 0.0597 ± 0.0026 | 0.0581 ± 0.00078 | 0.0557 ± 0.0031
I125K | 0.0599 ± 0.0029 | 0.05864 ± 0.00052 | 0.0564 ± 0.0031
I125L | 0.055 ± 0.001 | 0.05717 ± 0.00052 | 0.05552 ± 0.00026

Variant | sfGFP reporter fluorescence [1] | sfGFP reporter fluorescence ([2]; ligand: 1 µM Pb) | sfGFP reporter fluorescence ([2]; ligand: 30 µM Zn)
R111S | 0.06102 ± 0.00026 | 0.0951 ± 0.0023 | 1.14 ± 0.11
R111D | 0.0585 ± 0.0013 | 0.06707 ± 0.00052 | 0.215 ± 0.0029
R111N | 0.0583 | 0.0684 ± 0.00078 | 0.391 ± 0.032
R111C | 0.0572 ± 0.0021 | 0.077 ± 0.0042 | 0.157 ± 0.0054
R111V | 0.0586 ± 0.001 | 0.0744 ± 0.0021 | 0.483 ± 0.0073
R111E | 0.05864 ± 0.00052 | 0.0684 ± 0.00078 | 0.267 ± 0.013
R111W | 0.05937 ± 0.00052 | 0.0632 ± 0.0018 | 0.189 ± 0.0042
R111F | 0.0581 ± 0.00078 | 0.06927 ± 0.00052 | 0.328 ± 0.019
R111M | 0.05772 ± 0.00026 | 0.0623 ± 0.0026 | 0.243 ± 0.001
R111I | 0.0544 ± 0.00078 | 0.0662 ± 0.0013 | 0.288 ± 0.0036
R111H | 0.05791 ± 0.00052 | 0.0652 ± 0.0026 | 0.2344 ± 0.0013
R111L | 0.0552 ± 0.0013 | 0.06469 ± 0.00026 | 0.2 ± 0.016
R111Q | 0.0572 ± 0.001 | 0.0618 ± 0.0013 | 0.275 ± 0.0083
R111T | 0.0599 ± 0.00078 | 0.07752 ± 0.00026 | 0.535 ± 0.081
R111P | 0.0577 ± 0.0018 | 0.05846 ± 0.00026 | 0.0542 ± 0.0015
R111G | 0.0535 | 0.0623 ± 0.001 | 0.343 ± 0.0083
R111Y | 0.0566 ± 0.0023 | 0.0651 ± 0.00078 | 0.28 ± 0.029
R111K | 0.0575 ± 0.0015 | 0.06194 ± 0.00052 | 0.149 ± 0.02
R111A | 0.0634 ± 0.0026 | 0.09932 ± 0.00052 | 1.17 ± 0.021
G116A | 0.0597 | 0.0581 ± 0.0023 | 0.18 ± 0.063
R118A | 0.0676 ± 0.0018 | 0.0665 ± 0.00078 | 0.168 ± 0.026
E112Q | 0.0627 ± 0.0015 | 0.0909 ± 0.0078 | 1.27 ± 0.082

Variant | sfGFP reporter fluorescence [1] | sfGFP reporter fluorescence ([2]; ligand: 1 µM Pb) | sfGFP reporter fluorescence ([2]; ligand: 30 µM Zn)
E112H | 0.05882 ± 0.00026 | 0.077 ± 0.0057 | 0.424 ± 0.012
E112D | 0.0612 ± 0.0021 | 0.0722 ± 0.0026 | 0.565 ± 0.043
E112Y | 0.05919 ± 0.00026 | 0.06395 ± 0.00026 | 0.198 ± 0.028
E112N | 0.06212 ± 0.00026 | 0.079 ± 0.0029 | 1.04 ± 0.13
E112F | 0.0575 ± 0.0026 | 0.0647 ± 0.0023 | 0.24 ± 0.012
E112V | 0.0572 ± 0.0015 | 0.06597 ± 0.00052 | 0.343 ± 0.0078
E112W | 0.0579 ± 0.0015 | 0.0627 ± 0.001 | 0.152 ± 0.014
E112T | 0.0605 | 0.0804 ± 0.0029 | 0.857 ± 0.06
E112G | 0.0586 ± 0.0026 | 0.0847 ± 0.0042 | 1.23 ± 0.12
E112P | 0.0557 ± 0.001 | 0.057 ± 0.00078 | 0.0561
E112L | 0.0603 ± 0.00078 | 0.0867 ± 0.0034 | 0.851 ± 0.048
E112C | 0.0616 ± 0.001 | 0.0759 ± 0.0036 | 0.1508 ± 0.0013
E112K | 0.0706 ± 0.00078 | 0.1164 ± 0.00078 | 2.4 ± 0.25
E112I | 0.0542 ± 0.0015 | 0.06175 ± 0.00026 | 0.282 ± 0.021
E112A | 0.063 ± 0.0021 | 0.0929 ± 0.0039 | 1.31 ± 0.092
E112M | 0.06212 ± 0.00026 | 0.0938 ± 0.0093 | 0.9465 ± 0.007
E112S | 0.0673 ± 0.00078 | 0.1083 ± 0.00078 | 1.9 ± 0.14
E112R | 0.0658 ± 0.00078 | 0.107 ± 0.0088 | 1.53 ± 0.029
S122A | 0.06249 ± 0.00026 | 0.0762 ± 0.0015 | 0.687 ± 0.05
E109A | 0.0636 ± 0.00078 | 0.0804 ± 0.0039 | 0.883 ± 0.35
E109T | 0.0625 ± 0.0018 | 0.0935 ± 0.0026 | 1.71 ± 0.12
E109N | 0.05974 ± 0.00052 | 0.0845 ± 0.0044 | 1.47 ± 0.018

Variant | sfGFP reporter fluorescence [1] | sfGFP reporter fluorescence ([2]; ligand: 1 µM Pb) | sfGFP reporter fluorescence ([2]; ligand: 30 µM Zn)
E109S | 0.0592 ± 0.00078 | 0.0803 ± 0.0026 | 1.47 ± 0.04
E109G | 0.05644 ± 0.00052 | 0.0695 ± 0.0013 | 0.793 ± 0.063
E109F | 0.0621 ± 0.0013 | 0.09126 ± 0.00052 | 1.32 ± 0.051
E109V | 0.0605 ± 0.0042 | 0.107 ± 0.0096 | 1.69 ± 0.1
E109P | 0.0662 ± 0.0023 | 0.155 ± 0.011 | 1.45 ± 0.11
E109L | 0.0586 ± 0.001 | 0.0907 ± 0.0029 | 1.12 ± 0.12
E109R | 0.06542 ± 0.00026 | 0.102 ± 0.0078 | 1.86 ± 0.052
E109I | 0.05919 ± 0.00026 | 0.108 ± 0.0018 | 1.25 ± 0.29
E109Y | 0.06029 ± 0.00026 | 0.0832 ± 0.0031 | 1.46 ± 0.15
E109W | 0.061 ± 0.00078 | 0.0872 ± 0.0026 | 1.26 ± 0.035
E109D | 0.0597 ± 0.0021 | 0.0727 ± 0.0023 | 0.674 ± 0.02
E109C | 0.0596 ± 0.00078 | 0.0867 ± 0.0054 | 1.54 ± 0.077
E109K | 0.0649 ± 0.001 | 0.09492 ± 0.00052 | 2.2 ± 0.14
E109Q | 0.0601 | 0.0823 ± 0.0034 | 1.08 ± 0.25
E109H | 0.0581 ± 0.0013 | 0.0867 ± 0.0075 | 0.456 ± 0.012
E109M | 0.061 ± 0.0013 | 0.0806 ± 0.0057 | 0.957 ± 0.061
C123H | 0.0588 ± 0.0018 | 0.05901 ± 0.00052 | 0.0561 ± 0.0021
C123R | 0.0599 ± 0.0023 | 0.061 ± 0.00078 | 0.0574 ± 0.0044
C123A | 0.0575 ± 0.001 | 0.0553 | 0.0533 ± 0.00078
C123N | 0.0599 ± 0.0018 | 0.0561 ± 0.0015 | 0.05498 ± 0.00052
C123G | 0.0535 ± 0.001 | 0.0552 ± 0.0013 | 0.0502 ± 0.0015
C123L | 0.05589 ± 0.00026 | 0.0566 ± 0.0018 | 0.0542 ± 0.0021
